Assay results reported in publication PMC2581521 (Developmental cell, 2008).

T1: Xenopus Chordin-Myc (Xenopus, UniProt Q91713 20-941)
T1 sequence (looked up): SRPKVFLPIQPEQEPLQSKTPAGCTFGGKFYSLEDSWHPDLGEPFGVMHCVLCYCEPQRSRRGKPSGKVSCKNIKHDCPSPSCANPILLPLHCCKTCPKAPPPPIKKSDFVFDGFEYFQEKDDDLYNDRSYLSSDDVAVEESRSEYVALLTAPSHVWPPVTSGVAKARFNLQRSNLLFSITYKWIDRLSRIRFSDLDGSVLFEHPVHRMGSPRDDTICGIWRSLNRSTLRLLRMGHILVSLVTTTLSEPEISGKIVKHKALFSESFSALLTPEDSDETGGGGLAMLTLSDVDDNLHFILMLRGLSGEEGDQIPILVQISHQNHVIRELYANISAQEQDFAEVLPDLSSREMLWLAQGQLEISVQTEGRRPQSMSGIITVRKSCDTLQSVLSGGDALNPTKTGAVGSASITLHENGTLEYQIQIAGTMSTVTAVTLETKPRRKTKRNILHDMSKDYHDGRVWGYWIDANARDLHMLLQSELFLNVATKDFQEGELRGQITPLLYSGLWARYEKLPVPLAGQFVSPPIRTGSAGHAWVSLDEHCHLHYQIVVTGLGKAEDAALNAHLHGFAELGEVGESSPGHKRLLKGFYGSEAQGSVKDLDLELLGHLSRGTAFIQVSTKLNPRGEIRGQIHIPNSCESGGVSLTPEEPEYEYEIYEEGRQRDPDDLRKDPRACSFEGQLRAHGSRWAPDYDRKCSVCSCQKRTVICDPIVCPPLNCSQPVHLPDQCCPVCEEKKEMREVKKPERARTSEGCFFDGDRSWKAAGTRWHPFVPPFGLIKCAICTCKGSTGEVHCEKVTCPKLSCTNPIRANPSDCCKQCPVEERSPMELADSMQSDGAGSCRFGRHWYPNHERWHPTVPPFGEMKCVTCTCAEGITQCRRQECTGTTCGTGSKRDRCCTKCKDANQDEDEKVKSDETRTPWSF

B1: Twisted gastrulation (recombinant mouse Tsg) (natural protein, UniProt Q9EP52 25-222, looked up)
chain: CNKALCASDVSKCLIQELCQCRPGEGNCPCCKECMLCLGALWDECCDCVGMCNPRNYSDTPPTSKSTVEELHEPIPSLFRALTEGDTQLNWNIVSFPVAEELSHHENLVSFLETVNQLHHQNVSVPSNNVHAPFPSDKERMCTVVYFDDCMSIHQCKISCESMGASKYRWFHNACCECIGPECIDYGSKTVKCMNCMF
B2: Crossveinless-2 (recombinant mouse CV2) (natural protein)
chain: not shown

What was measured:
[1] = molecular target: B2; assay: co-IP
[2] = molecular target: T1, Xenopus Chordin-Myc; assay: cross-linking
[3] = molecular target: B1; assay: cross-linking

binding result [1]	binding result [2]	binding result [3]	Binder
binds			B1
	binds		B2
	binds	binds	Bone Morphogenetic Protein 4 (recombinant human BMP4) (ligand, UniProt P12644 293-408, looked up) SPKHHSQRARKKNKNCRRHSLYVDFSDVGWNDWIVAPPGYQAFYCHGDCPFPLADHLNSTNHAIVQTLVNSVNSSIPKACCVPTELSAISMLYLDEYDKVVLKNYQEMVVEGCGCR
